Reference: publication PMC4893818, “Folliculin directs the formation of a Rab34–RILP complex to control the nutrient‐dependent dynamic distribution of lysosomes” (EMBO Reports, 2016)
Values belong to the binder of their own block, whether it stands above or below them.

What was measured:
[1] = target: T1, GST-RILP (full ORF) (human, UniProt Q96NA2 1-401); test: pull-down; purified proteins: 0.2 nmol GST-RILP on glutathione beads; Rab34 proteins at 200 nM together with FLCN-DENN (1 uM; titrated 0 to 10 uM; 0.5 uM for wild-type Rab34); HEPES pH 7.5, 250 mM NaCl, 2 mM MgCl2, 1 mM GDP or GTPγS; 14 h at 4 °C; anti-His Western blot; details: both partners purified
T1 construct: also called GST-RILP resin; source: E. coli BL21(DE3), purified (glutathione beads, eluted with glutathione, dialysed); not shown: GST, N-terminal, kept
T1 sequence (looked up): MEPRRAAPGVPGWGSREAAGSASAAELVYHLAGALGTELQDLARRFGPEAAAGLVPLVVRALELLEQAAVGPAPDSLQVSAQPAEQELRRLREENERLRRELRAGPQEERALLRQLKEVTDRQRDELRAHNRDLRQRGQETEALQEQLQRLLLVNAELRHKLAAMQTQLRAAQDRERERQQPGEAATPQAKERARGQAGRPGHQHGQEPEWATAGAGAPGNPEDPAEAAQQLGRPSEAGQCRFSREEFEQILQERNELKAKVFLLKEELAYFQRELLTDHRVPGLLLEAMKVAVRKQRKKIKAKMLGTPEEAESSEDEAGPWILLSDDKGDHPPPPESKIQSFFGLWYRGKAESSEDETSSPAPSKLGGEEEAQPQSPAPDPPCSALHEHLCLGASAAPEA

[2] = target: T1, GST-RILP (full ORF); test: pull-down; GST-RILP or GST on beads, His-FLCN-DENN in E. coli extract; Western blot; details: one partner purified
[3] = target: T1, GST-RILP (full ORF); test: pull-down; 0.1 nmol GST-RILP prebound to glutathione beads, lysate of HeLa cells in normal growth or starved 4 h; 25 mM HEPES pH 7.5, 150 mM NaCl, 2 mM MgCl2, 0.2% NP-40, 0.2% Triton X-100; Western blot; details: one partner purified

- binding result [2]: binds
B3: His-tagged human FLCN-DENN domain (amino acids 341-556) (domain or fragment, UniProt Q8NFG4 341-556, looked up)
chain: RKLPVFKSLRHMRQVLGAPSFRMLAWHVLMGNQVIWKSRDVDLVQSAFEVLRTMLPVGCVRIIPYSSQYEEAYRCNFLGLSPHVQIPPHVLSSEFAVIVEVHAAARSTLHPVGCEDDQSLSKYEFVVTSGSPVAADRVGPTILNKIEAALTNQNLSVDVVDQCLVCLKEEWMNKVKVLFKFTKVDSRPKEDTQKLLSILGASEEDNVKLLKFWMTG
notes: folliculin (FLCN), human, C-terminal DENN domain, amino acids 341-556, in pET28 His-thrombin; vector pET28 His-thrombin; detected by an anti-His antibody; also called His-FLCN-DENN; source: E. coli, purified (His-trap FF, imidazole gradient)

- fold increase of Rab34 retained on GST-RILP, starved against normal growth [3]: ~2 fold
B4: endogenous Rab34 (natural protein, UniProt Q9BZG1 1-259, looked up)
chain: MNILAPVRRDRVLAELPQCLRKEAALHGHKDFHPRVTCACQEHRTGTVGFKISKVIVVGDLSVGKTCLINRFCKDTFDKNYKATIGVDFEMERFEVLGIPFSLQLWDTAGQERFKCIASTYYRGAQAIIIVFNLNDVASLEHTKQWLADALKENDPSSVLLFLVGSKKDLSTPAQYALMEKDALQVAQEMKAEYWAVSSLTGENVREFFFRVAALTFEANVLAELEKSGARRIGDVVRINSDDSNLYLTASKKKPTCCP
notes: Rab34 small GTPase, endogenous in human cell lines; source: endogenous, HeLa lysate; endogenous, lysates of UOK257, UOK257-2, UOK257-FLCN and UOK257-FLCNΔDENN cells

The remaining lines, values behind:

B1: His-tagged Rab34 WT (natural protein, mouse, UniProt Q64008 1-259, looked up)
chain: MNILAPVRRDRVLAELPQCLKKEAALHVRKDFHPRVTCACQEHRTGTVGFKISKVIVVGDLSVGKTCLINRFCKDTFDKNYKATIGVDFEMERFEVLGVPFSLQLWDTAGQERFKCIASTYYRGAQAIIIVFNLNDVASLEHTKQWLTDALKENDPSNVLLFLVGSKKDLSTPAQYSLMEKDALKVAQEIKAEYWAVSSLTGENVREFFFRVAALTFEANVLADVEKSGARHIADVVRINSDDKNLYLTASKKKATCCP
notes: Rab34, mouse, from an I.M.A.G.E. clone, in pET28 His-thrombin; loaded with GTPγS or GDP before the pull-down; also called wild-type Rab34; purified Rab34; source: E. coli, purified (His-trap FF, imidazole gradient)
- binding result [1]: binds

B2: His-tagged Rab34 Q111L (natural protein, mouse, UniProt Q64008 1-259, looked up)
chain: MNILAPVRRDRVLAELPQCLKKEAALHVRKDFHPRVTCACQEHRTGTVGFKISKVIVVGDLSVGKTCLINRFCKDTFDKNYKATIGVDFEMERFEVLGVPFSLQLWDTAGLERFKCIASTYYRGAQAIIIVFNLNDVASLEHTKQWLTDALKENDPSNVLLFLVGSKKDLSTPAQYSLMEKDALKVAQEIKAEYWAVSSLTGENVREFFFRVAALTFEANVLADVEKSGARHIADVVRINSDDKNLYLTASKKKATCCP
notes: Rab34, mouse, from an I.M.A.G.E. clone, in pET28 His-thrombin; assayed in the presence of 1 mM GTPγS; also called GTP hydrolysis-deficient (Q111L) Rab34; source: E. coli, purified (His-trap FF, imidazole gradient)
- fold enhancement of binding to RILP in the presence of FLCN-DENN (1 uM) against without it [1]: ~2.7 fold
